Data on 1 substance can be found in patent US20220073621A1.

The target of assay [1] is Mouse PD-L1 on CHO cells (mouse) (UniProt Q9EP73). Put plainly: flow cytometry, CHO-mPD-L1 cells, Anti-mouse-IgGFc-FITC. In general terms: A flow cytometer gives signals particle by particle.
In assay [2] the target is Rhesus monkey PD-L1 on CHO cells (rhesus monkey). Briefly: flow cytometry, CHO-rmPD-L1 cells, Anti-mouse-IgGFc-FITC.
The target of assay [3] is human-mouse chimeric PD-L1 on CHO cells (human-mouse chimeric). Briefly: flow cytometry, CHO-cPD-L1 cells, Anti-human IgG Fc-FITC.
Assay [4] addresses Mouse PD-L1 on CHO cells (mouse) (UniProt Q9EP73). Put plainly: flow cytometry, CHO-mPD-L1 cells, Anti-human IgG Fc-FITC.
Assay [5] addresses Rhesus monkey PD-L1 on CHO cells (rhesus monkey). Put plainly: flow cytometry, CHO-rPD-L1 cells, Anti-human IgG Fc-FITC.

Sequence of Rhesus monkey PD-L1 on CHO cells (rhesus monkey) (Q9NZQ7 other isoform, or with tags, fused parts or gaps limits assumed): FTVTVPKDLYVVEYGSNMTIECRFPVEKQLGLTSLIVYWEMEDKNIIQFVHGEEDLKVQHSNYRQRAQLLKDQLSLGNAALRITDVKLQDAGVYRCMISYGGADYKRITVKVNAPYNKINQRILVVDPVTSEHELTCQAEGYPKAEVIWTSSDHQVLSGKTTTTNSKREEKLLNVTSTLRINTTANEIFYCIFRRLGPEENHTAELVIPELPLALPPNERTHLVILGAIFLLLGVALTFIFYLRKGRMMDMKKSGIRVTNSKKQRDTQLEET
Sequence of Mouse PD-L1 on CHO cells (mouse) (Q9EP73 19-290 limits assumed): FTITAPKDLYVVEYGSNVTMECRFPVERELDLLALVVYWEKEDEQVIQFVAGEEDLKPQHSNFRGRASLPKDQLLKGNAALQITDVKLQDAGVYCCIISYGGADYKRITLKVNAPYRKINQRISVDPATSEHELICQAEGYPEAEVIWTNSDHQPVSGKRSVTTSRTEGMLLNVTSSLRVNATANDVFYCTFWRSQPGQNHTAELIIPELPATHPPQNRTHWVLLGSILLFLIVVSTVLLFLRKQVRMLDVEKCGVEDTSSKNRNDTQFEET
Sequence of human-mouse chimeric PD-L1 on CHO cells (human-mouse chimeric) (Q9EP73 other isoform, or with tags, fused parts or gaps mutant limits assumed): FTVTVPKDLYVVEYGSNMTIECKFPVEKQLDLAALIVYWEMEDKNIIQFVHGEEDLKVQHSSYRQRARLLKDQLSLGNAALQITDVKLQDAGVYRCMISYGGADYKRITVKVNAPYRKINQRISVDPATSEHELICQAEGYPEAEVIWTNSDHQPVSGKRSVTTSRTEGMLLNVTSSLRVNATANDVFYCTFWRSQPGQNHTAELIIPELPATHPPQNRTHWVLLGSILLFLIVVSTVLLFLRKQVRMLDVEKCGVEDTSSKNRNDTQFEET

As for NC, the % cells in the FITC-positive gate is 5.52% in assay [1]; 1.13% in assay [2]; 0.779% in assay [3]; 0.681% in assay [4]; 2.74% in assay [5].
